The values that follow come from publication PMC4957108.

Assay [1] concerns the target CagA-C1164S (Helicobacter pylori strain 26695) (UniProt P55980). Description: AUC; sedimentation velocity, 20 °C, 10 mM HEPES pH 7.7, 150 mM NaCl, 1 mM EDTA; 5.5 μM CagA-CS, 11 μM PAR1b (39–364), alone or mixed; c(s) by SEDFIT.
In assay [2] the target is GST-CagA-1CM^W1 (Helicobacter pylori strain 26695) (UniProt P55980). The assay is described as follows: pull-down; quantitative GST pull-down: GST-CagA on beads in a range of concentrations, fixed low concentration of PAR1b (39–364)-FLAG, GST-binding buffer with 0.01% Triton-X, 20 min at 4 °C, unbound PAR1b in the supernatant quantified, binding to GST control subtracted; apparent KD.

For assay [3], the target named is GST-CagA-1CM^W2 (Helicobacter pylori strain 26695) (UniProt P55980). The description is as above.
Assay [4] addresses GST-CagA-1CM^E (Helicobacter pylori strain 26695) (UniProt P55980). The description is as above.

Consider “PAR1b (39–364) (from UniProt Q7KZI7-14 39-364) (domain or fragment)”, for which, in assay [1], the stoichiometry N (PAR1b per CagA) amounted to 2.

On to “PAR1b (39–364)-FLAG (from UniProt Q7KZI7-14 39-364) (domain or fragment)”, for which the values for the Kd in assay [2], in assay [3] and in assay [4] were 90.3 nM, 106 nM and 46.4 nM, respectively.
